The data set is described as follows: Isoelectric point of SELP repeat sequence protein polymers. The format is physicochemical.

Regarding “SELP47K: silk-elastin repeat sequence protein block copolymer, head-[(GAGAGS)2(GVGVP)3GKGVP(GVGP)4(GAGAGS)2]13-tail, 886 amino acids”, the “pI of the protein” value amounted to 10.5.

Source of the values: US7456147B2, “Controlled release of active agents utilizing repeat sequence protein polymers” (Dow Corning, Corporation, priority 2003, dated 2008).
